Data as given in publication PMC11649783, “Structural basis of 3′-tRNA maturation by the human mitochondrial RNase Z complex” (The EMBO Journal, 2024).

Molecular target: T1, SDR5C1 (human, UniProt Q99714 1-261)
T1 construct: expression construct as previously described (Reinhard et al, 2017); The subcomplex was purified by Ni2+ IMAC and treated with TEV protease; also called 4xSDR5C1
T1 sequence: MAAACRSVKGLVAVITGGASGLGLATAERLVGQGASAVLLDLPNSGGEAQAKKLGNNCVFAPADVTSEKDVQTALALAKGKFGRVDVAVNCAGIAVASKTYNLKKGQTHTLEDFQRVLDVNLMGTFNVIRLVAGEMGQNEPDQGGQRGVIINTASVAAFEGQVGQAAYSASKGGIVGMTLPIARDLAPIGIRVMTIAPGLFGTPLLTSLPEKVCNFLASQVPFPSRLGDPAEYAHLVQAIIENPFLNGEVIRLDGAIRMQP
Test: cryo-EM structure; RNase Z-HS product complex: assembled at 4 °C from 10 μM TRMT10C/SDR5C1, 20 μM ELAC2 and 20 μM mt-tRNA^His-Ser(AGY) precursor with 200 μM SAM in buffer D (20 mM HEPES 7.5, 50 mM NaCl, 1 mM MgCl2, 1 mM DTT), S200 size exclusion, incubated to complete turnover; 2.9 Å
Conditions: both partners purified

B1: TRMT10C (enzyme, human, UniProt Q7L0Y3 40-403, looked up)
chain: MSSKIPAVTYPKNESTPPSEELELDKWKTTMKSSVQEECVSTISSSKDEDPLAATREFIEMWRLLGREVPEHITEEELKTLMECVSNTAKKKYLKYLYTKEKVKKARQIKKEMKAAAREEAKNIKLLETTEEDKQKNFLFLRLWDRNMDIAMGWKGAQAMQFGQPLVFDMAYENYMKRKELQNTVSQLLESEGWNRRNVDPFHIYFCNLKIDGALHRELVKRYQEKWDKLLLTSTEKSHVDLFPKDSIIYLTADSPNVMTTFRHDKVYVIGSFVDKSMQPGTSLAKAKRLNLATECLPLDKYLQWEIGNKNLTLDQMIRILLCLKNNGNWQEALQFVPKRKHTGFLEISQHSQEFINRLKKAKT
notes: TRMT10C, human; expression construct as previously described (Reinhard et al, 2017); The subcomplex was purified by Ni2+ IMAC and treated with TEV protease
For B1, the “stoichiometry N” value was 2 mt-tRNA/TRMT10C per SDR5C1 tetramer.
